From PMC9482650, “Quantitative fragmentomics allow affinity mapping of interactomes” (Nature Communications, 2022)
Where a chain is given by its changes, count along the chain named.

Experiments:
Test in all cases: holdup assay
Set-up in all cases: key: below the threshold = too weak to quantify, mostly under pKd 3.1 to 4
TIAM2, Q8IVF5 = biological target: T1, TIAM2, Q8IVF5
T1 sequence (Q8IVF5 885-986, limits assumed, looked up): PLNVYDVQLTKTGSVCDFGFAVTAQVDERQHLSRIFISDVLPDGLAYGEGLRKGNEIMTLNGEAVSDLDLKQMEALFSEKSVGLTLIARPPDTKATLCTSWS

ARHGAP21, Q5T5U3 = biological target: T2, ARHGAP21, Q5T5U3
T2 sequence (Q5T5U3 45-169, limits assumed, looked up): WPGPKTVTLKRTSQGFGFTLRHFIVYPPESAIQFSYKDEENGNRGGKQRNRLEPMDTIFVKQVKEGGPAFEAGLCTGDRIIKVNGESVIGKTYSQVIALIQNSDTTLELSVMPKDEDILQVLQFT

PDZRN4_1, Q6ZMN7 = biological target: PDZRN4_1, Q6ZMN7
Inadl_1, Q8NI35 = biological target: Inadl_1, Q8NI35
GRID2IP_1, A4D2P6 = biological target: GRID2IP_1, A4D2P6
MPDZ_5, O75970 = biological target: T3, MPDZ_5, O75970
T3 sequence (O75970 695-796, limits assumed, looked up): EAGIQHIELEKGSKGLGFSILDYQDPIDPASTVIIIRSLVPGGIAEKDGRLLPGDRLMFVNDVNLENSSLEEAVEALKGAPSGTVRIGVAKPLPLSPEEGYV

CARD11, Q9BXL7 = biological target: T4, CARD11, Q9BXL7
T4 sequence (Q9BXL7 662-765, limits assumed, looked up): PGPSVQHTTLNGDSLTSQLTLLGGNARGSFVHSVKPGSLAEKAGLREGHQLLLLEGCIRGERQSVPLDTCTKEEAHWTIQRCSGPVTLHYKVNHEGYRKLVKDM

TJP2_1, Q9UDY2 = biological target: TJP2_1, Q9UDY2
IL16_4, Q14005 = biological target: IL16_4, Q14005
GRIP1_5, Q9Y3R0 = biological target: T5, GRIP1_5, Q9Y3R0
T5 sequence (Q9Y3R0 568-668, limits assumed, looked up): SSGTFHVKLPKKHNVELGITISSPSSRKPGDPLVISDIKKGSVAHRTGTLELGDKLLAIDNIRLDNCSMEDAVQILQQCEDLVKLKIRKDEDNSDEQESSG

MAGI1_1, Q96QZ7 = biological target: MAGI1_1, Q96QZ7
LIN7B, Q9HAP6 = biological target: T6, LIN7B, Q9HAP6
T6 sequence (Q9HAP6 88-185, limits assumed, looked up): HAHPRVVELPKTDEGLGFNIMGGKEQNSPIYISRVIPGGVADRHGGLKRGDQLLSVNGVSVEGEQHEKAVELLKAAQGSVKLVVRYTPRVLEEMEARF

NHERF3_4, Q5T2W1 = biological target: T7, NHERF3_4, Q5T2W1
T7 sequence (Q5T2W1 373-468, limits assumed, looked up): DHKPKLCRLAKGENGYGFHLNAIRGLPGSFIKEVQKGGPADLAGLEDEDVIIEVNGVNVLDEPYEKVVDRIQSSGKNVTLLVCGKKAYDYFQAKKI

LRRC7, Q96NW7 = biological target: T8, LRRC7, Q96NW7
T8 sequence (Q96NW7 1440-1537, limits assumed, looked up): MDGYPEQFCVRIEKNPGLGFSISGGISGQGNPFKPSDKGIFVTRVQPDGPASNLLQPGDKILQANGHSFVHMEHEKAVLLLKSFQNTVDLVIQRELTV

HTRA3, P83110 = biological target: T9, HTRA3, P83110
T9 sequence (P83110 354-453, limits assumed, looked up): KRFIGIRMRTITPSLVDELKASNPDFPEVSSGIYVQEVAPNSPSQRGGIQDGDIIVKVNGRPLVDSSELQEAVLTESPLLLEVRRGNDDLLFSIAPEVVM

Inadl_9, Q8NI35 = biological target: Inadl_9, Q8NI35
MAGI2_6, Q86UL8 = biological target: MAGI2_6, Q86UL8
PICK1, Q9NRD5 = biological target: PICK1, Q9NRD5
GRASP, Q7Z6J2 = biological target: GRASP, Q7Z6J2
SNTG1, Q9NSN8 = biological target: T10, SNTG1, Q9NSN8
T10 sequence (Q9NSN8 52-150, limits assumed, looked up): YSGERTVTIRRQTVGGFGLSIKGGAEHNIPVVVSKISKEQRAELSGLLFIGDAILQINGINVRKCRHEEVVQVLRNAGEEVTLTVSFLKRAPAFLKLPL

LNX2_3, Q8N448 = biological target: T11, LNX2_3, Q8N448
T11 sequence (Q8N448 463-564, limits assumed, looked up): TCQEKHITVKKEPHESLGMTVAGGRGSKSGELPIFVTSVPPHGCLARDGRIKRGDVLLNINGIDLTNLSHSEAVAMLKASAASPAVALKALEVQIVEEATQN

AHNAK1, Q09666 = biological target: AHNAK1, Q09666
SNTB1, Q13884 = biological target: T12, SNTB1, Q13884
T12 sequence (Q13884 107-205, limits assumed, looked up): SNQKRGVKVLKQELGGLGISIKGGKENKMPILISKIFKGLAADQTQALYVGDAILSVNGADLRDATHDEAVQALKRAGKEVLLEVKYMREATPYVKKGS

LIN7A, O14910 = biological target: T13, LIN7A, O14910
T13 sequence (O14910 103-200, limits assumed, looked up): T6 sequence (Q9HAP6 88-185, limits assumed, looked up) with A2S, I20V, V35I, D42E, Q65H, Q77K, G78D, R89K

[1] = plain residues with an end cap or a label only (N-terminal biotin on a linker: gsgsgs; C-terminal amide)
[2] = plain residues with an end cap or a label only (N-terminal biotin on a linker: ahx)

Sequence of MAGI1_1, Q96QZ7 (Q96QZ7 1-106): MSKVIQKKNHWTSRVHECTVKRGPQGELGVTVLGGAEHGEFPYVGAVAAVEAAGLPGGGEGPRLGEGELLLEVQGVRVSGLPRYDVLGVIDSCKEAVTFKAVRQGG
Sequence of GRID2IP_1, A4D2P6 (A4D2P6 1-87): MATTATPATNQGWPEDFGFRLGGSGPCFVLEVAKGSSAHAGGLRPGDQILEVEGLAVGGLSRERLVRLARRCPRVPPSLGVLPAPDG
Sequence of IL16_4, Q14005 (Q14005 1229-1329): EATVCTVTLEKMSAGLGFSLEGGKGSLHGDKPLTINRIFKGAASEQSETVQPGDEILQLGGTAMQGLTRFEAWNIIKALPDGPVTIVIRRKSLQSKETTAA
Sequence of MAGI2_6, Q86UL8 (Q86UL8 1141-1229): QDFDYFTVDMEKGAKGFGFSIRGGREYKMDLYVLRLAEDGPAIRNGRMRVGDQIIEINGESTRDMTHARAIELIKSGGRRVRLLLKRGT
Sequence of GRASP, Q7Z6J2 (Q7Z6J2 96-193): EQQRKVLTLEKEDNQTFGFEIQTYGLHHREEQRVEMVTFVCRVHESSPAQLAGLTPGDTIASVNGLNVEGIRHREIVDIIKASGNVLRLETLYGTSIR
Sequence of Inadl_9, Q8NI35 (Q8NI35 1530-1615): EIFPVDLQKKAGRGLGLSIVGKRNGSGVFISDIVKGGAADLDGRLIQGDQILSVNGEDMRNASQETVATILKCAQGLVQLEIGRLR
Sequence of Inadl_1, Q8NI35 (Q8NI35 113-229): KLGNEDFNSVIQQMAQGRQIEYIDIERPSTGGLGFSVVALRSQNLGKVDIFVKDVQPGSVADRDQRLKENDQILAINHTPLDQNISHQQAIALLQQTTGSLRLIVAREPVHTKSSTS
Sequence of TJP2_1, Q9UDY2 (Q9UDY2 24-128): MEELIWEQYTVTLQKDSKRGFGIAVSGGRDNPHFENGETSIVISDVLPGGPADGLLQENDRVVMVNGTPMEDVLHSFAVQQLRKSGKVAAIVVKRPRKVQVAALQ
Sequence of PDZRN4_1, Q6ZMN7 (Q6ZMN7 213-318): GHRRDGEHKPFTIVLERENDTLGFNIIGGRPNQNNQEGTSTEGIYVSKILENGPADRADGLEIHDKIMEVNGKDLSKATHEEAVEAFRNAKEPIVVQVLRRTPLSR
Sequence of PICK1, Q9NRD5 (Q9NRD5 17-115): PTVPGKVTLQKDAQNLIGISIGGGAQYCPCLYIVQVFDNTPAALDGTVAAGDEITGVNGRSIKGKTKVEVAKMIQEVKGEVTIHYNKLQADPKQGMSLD

Binder: VSVDDVRSTSQGLSSY [DFNB31_int, Q9P202]
- pKd (TIAM2, Q8IVF5; [1]): 3.85
- pKd (ARHGAP21, Q5T5U3; [1]): below the threshold
- pKd (PDZRN4_1, Q6ZMN7; [1]): below the threshold
- pKd (Inadl_1, Q8NI35; [1]): below the threshold
- pKd (GRID2IP_1, A4D2P6; [1]): below the threshold
- pKd (MPDZ_5, O75970; [1]): below the threshold
- pKd (CARD11, Q9BXL7; [1]): below the threshold
- pKd (TJP2_1, Q9UDY2; [1]): below the threshold
- pKd (IL16_4, Q14005; [1]): below the threshold
- pKd (GRIP1_5, Q9Y3R0; [1]): below the threshold
- pKd (MAGI1_1, Q96QZ7; [1]): below the threshold
- pKd (LIN7B, Q9HAP6; [1]): 3.48
- pKd (NHERF3_4, Q5T2W1; [1]): below the threshold
- pKd (LRRC7, Q96NW7; [1]): below the threshold
- pKd (HTRA3, P83110; [1]): below the threshold
- pKd (Inadl_9, Q8NI35; [1]): below the threshold
- pKd (MAGI2_6, Q86UL8; [1]): below the threshold
- pKd (PICK1, Q9NRD5; [1]): below the threshold
- pKd (GRASP, Q7Z6J2; [1]): below the threshold
- pKd (SNTG1, Q9NSN8; [1]): below the threshold
- pKd (LNX2_3, Q8N448; [1]): below the threshold
- pKd (AHNAK1, Q09666; [1]): below the threshold
- pKd (SNTB1, Q13884; [1]): below the threshold
- pKd (LIN7A, O14910; [1]): below the threshold

Binder: PSASCAVTAA [PDLIM4, P50479;P50479-2]
- pKd (TIAM2, Q8IVF5; [2]): below the threshold
- pKd (ARHGAP21, Q5T5U3; [2]): below the threshold
- pKd (PDZRN4_1, Q6ZMN7; [2]): below the threshold
- pKd (Inadl_1, Q8NI35; [2]): below the threshold
- pKd (GRID2IP_1, A4D2P6; [2]): below the threshold
- pKd (MPDZ_5, O75970; [2]): below the threshold
- pKd (CARD11, Q9BXL7; [2]): below the threshold
- pKd (TJP2_1, Q9UDY2; [2]): below the threshold
- pKd (IL16_4, Q14005; [2]): below the threshold
- pKd (GRIP1_5, Q9Y3R0; [2]): below the threshold
- pKd (MAGI1_1, Q96QZ7; [2]): below the threshold
- pKd (LIN7B, Q9HAP6; [2]): below the threshold
- pKd (NHERF3_4, Q5T2W1; [2]): below the threshold
- pKd (LRRC7, Q96NW7; [2]): below the threshold
- pKd (HTRA3, P83110; [2]): below the threshold
- pKd (Inadl_9, Q8NI35; [2]): below the threshold
- pKd (MAGI2_6, Q86UL8; [2]): below the threshold
- pKd (PICK1, Q9NRD5; [2]): below the threshold
- pKd (GRASP, Q7Z6J2; [2]): below the threshold
- pKd (SNTG1, Q9NSN8; [2]): below the threshold
- pKd (LNX2_3, Q8N448; [2]): below the threshold
- pKd (AHNAK1, Q09666; [2]): below the threshold
- pKd (SNTB1, Q13884; [2]): below the threshold
- pKd (LIN7A, O14910; [2]): below the threshold
